From paper PMC4046564, “Reconstitution of dynein transport to the microtubule plus end by kinesin” (eLife, 2014)

T1: Kip2 (S. cerevisiae, UniProt P28743 1-706, differently phosphorylated forms (doublet on SDS-PAGE; not treated with phosphatase); Atto647N on the SNAP tag in the TIRF assays)
T1 construct: kinesin Kip2, S. cerevisiae; genomic kip2 locus modified by homologous recombination (8HIS-ZZ-Tev-KIP2-g-FLAG-ga-SNAP); also called Kip2-Atto647; kinesin; source: S. cerevisiae (strain RPY1099, GAL1 promoter), purified (IgG sepharose via ZZ tag, TEV release; for SEC Ni-NTA then IgG sepharose); not shown: His8, N-terminal, cleaved; ZZ, N-terminal, cleaved; SNAP, C-terminal, kept
T1 sequence (looked up): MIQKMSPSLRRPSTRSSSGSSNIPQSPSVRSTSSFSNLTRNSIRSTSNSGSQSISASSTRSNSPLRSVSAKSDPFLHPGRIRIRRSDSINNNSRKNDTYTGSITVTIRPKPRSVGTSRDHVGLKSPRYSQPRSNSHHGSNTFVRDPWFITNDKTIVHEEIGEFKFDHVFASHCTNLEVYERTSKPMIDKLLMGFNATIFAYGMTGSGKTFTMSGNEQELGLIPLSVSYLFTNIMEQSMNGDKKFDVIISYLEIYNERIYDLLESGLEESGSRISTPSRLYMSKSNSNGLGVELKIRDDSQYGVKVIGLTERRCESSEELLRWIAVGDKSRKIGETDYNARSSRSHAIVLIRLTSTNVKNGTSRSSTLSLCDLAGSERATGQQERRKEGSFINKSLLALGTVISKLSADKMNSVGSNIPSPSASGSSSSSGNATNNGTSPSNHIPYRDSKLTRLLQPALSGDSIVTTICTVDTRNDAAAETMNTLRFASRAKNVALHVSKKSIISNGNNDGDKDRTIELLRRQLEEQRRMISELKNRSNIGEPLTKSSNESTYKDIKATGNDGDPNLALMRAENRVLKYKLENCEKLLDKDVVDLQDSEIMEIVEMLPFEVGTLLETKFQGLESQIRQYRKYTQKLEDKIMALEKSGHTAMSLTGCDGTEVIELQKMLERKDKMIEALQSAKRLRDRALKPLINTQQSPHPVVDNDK

B1: Bim1 (natural protein, S. cerevisiae, UniProt P40013 1-344, looked up)
chain: MSAGIGESRTELLTWLNGLLNLNYKKIEECGTGAAYCQIMDSIYGDLPMNRVKFNATAEYEFQTNYKILQSCFSRHGIEKTVYVDKLIRCKFQDNLEFLQWLKKHWIRHKDESVYDPDARRKYRPIITNNSATKPRTVSNPTTAKRSSSTGTGSAMSGGLATRHSSLGINGSRKTSVTQGQLVAIQAELTKSQETIGSLNEEIEQYKGTVSTLEIEREFYFNKLRDIEILVHTTQDLINEGVYKFNDETITGHGNGNGGALLRFVKKVESILYATAEGFEMNDGEDELNDKNLGEHGTVPNQGGYANSNGEVNGNEGSNHDVIMQNDEGEVGVSNNLIIDEETF
notes: Bim1 (EB1 homolog), S. cerevisiae; open-reading frame amplified from genomic DNA; also called EB1 homolog; source: E. coli BL-21(DE3), purified (Strep-Tactin, TEV release); not shown: His6, N-terminal, cleaved; Strep, N-terminal, cleaved
B2: Bik1 (natural protein, S. cerevisiae, UniProt P11709 1-440, looked up)
chain: MDRYQRKIGCFIQIPNLGRGQLKYVGPVDTKAGMFAGVDLLANIGKNDGSFMGKKYFQTEYPQSGLFIQLQKVASLIEKASISQTSRRTTMEPLSIPKNRSIVRLTNQFSPMDDPKSPTPMRSFRITSRHSGNQQSMDQEASDHHQQQEFGYDNREDRMEVDSILSSDRKANHNTTSDWKPDNGHMNDLNSSEVTIELREAQLTIEKLQRKQLHYKRLLDDQRMVLEEVQPTFDRYEATIQEREKEIDHLKQQLELERRQQAKQKQFFDAENEQLLAVVSQLHEEIKENEERNLSHNQPTGANEDVELLKKQLEQLRNIEDQFELHKTKWAKEREQLKMHNDSLSKEYQNLSKELFLTKPQDSSSEEVASLTKKLEEANEKIKQLEQAQAQTAVESLPIFDPPAPVDTTAGRQQWCEHCDTMGHNTAECPHHNPDNQQFF
notes: Bik1 (Clip170 homolog), S. cerevisiae; open-reading frame amplified from genomic DNA; Eluted from Ni-NTA with imidazole; no removal of the tag is told; also called Clip170 homolog; source: sf21 insect cells (baculovirus), purified (Ni-NTA)
B3: Bik1ΔC (domain or fragment, S. cerevisiae, UniProt P11709 1-400, looked up)
chain: MDRYQRKIGCFIQIPNLGRGQLKYVGPVDTKAGMFAGVDLLANIGKNDGSFMGKKYFQTEYPQSGLFIQLQKVASLIEKASISQTSRRTTMEPLSIPKNRSIVRLTNQFSPMDDPKSPTPMRSFRITSRHSGNQQSMDQEASDHHQQQEFGYDNREDRMEVDSILSSDRKANHNTTSDWKPDNGHMNDLNSSEVTIELREAQLTIEKLQRKQLHYKRLLDDQRMVLEEVQPTFDRYEATIQEREKEIDHLKQQLELERRQQAKQKQFFDAENEQLLAVVSQLHEEIKENEERNLSHNQPTGANEDVELLKKQLEQLRNIEDQFELHKTKWAKEREQLKMHNDSLSKEYQNLSKELFLTKPQDSSSEEVASLTKKLEEANEKIKQLEQAQAQTAVESLPIF
notes: Bik1 (Clip170 homolog), S. cerevisiae, lacking the C-terminal 40 amino acids (zinc knuckle domain); also called Bik1ΔC construct lacking the C-terminal 40 amino acids; source: sf21 insect cells (baculovirus), purified (Ni-NTA)

What was measured:
Kip2 (S. cerevisiae) = Kip2 (S. cerevisiae) (UniProt P28743)
Bik1 = target: B2; assay: SEC; Superose 6 PC 3.2/30; indicated combinations of purified protein (100 picomoles each) pre-incubated at 1.1 μM for 10 min at 4°C; 50 mM Tris-HCl pH 8.0, 150 mM potassium acetate, 2 mM magnesium acetate, 1 mM EGTA, 5% glycerol, 1 mM DTT; fractions analysed by SDS-PAGE; settings: both partners purified
Bik1ΔC = target: B3; assay: as above; settings: both partners purified
Kip2 = target: T1, Kip2; assay: as above; settings: both partners purified

How did the direction of dynein movements on dynamic microtubules (TIRF) with Lis1, Bik1, Bim1 and Kip2: proportion directed to the plus end; without Lis1 or Bik1 dynein moved to the minus end (Kip2 (S. cerevisiae)) turn out when GST-dynein_(331 kDa), P36022 1-4092 was run?
The direction of dynein movements on dynamic microtubules (TIRF) with Lis1, Bik1, Bim1 and Kip2: proportion directed to the plus end; without Lis1 or Bik1 dynein moved to the minus end was 90%.

Does B1 bind (Bik1)?
Result: binds

Does B1 bind (Bik1ΔC)?
Result: binds

Does B2 bind (Kip2)?
Result: binds

Does B3 bind (Kip2)?
Result: binds
